Earlier results in article PMC4188523.

Legend:
Asp52 = Asp52 (UniProt position 70, TDGSTDYGILQ); assay: NMR (according to the title of cited reference 36; not described in this article)
Glu35 = Glu35 (UniProt position 53, CAAKFESNFNT); assay: as above

Hen egg white lysozyme (HEWL, lysozyme C) (Gallus gallus)
pKa (Asp52): ∼3.6 | pKa (Glu35): ∼6.2
